From paper PMC10522976

Target: Cynomolgus MSLN (cynomolgus macaque)

Kd: > 100 nM
B1: VH 3C9 (human antibody heavy chain variable domain) (VHH)
VHH: DVQLVESGGGVVQPGRSLRLSCAASGFTFSSYAMHWVRQAPGKGLEWVSSISGNSLYKYYADSVKGRFTISRDDSTNTLYLQMNSLRAEDTATYYCTRHWAVGNWGQGTLVTVSS
